In publication PMC9127583 (iScience, 2022):

Molecular target: full-length Hsp70 (UniProt P0DMV8 1-641)
Experiment: NMR titration

Chain of full-length Hsp70 (P0DMV8 whole entry): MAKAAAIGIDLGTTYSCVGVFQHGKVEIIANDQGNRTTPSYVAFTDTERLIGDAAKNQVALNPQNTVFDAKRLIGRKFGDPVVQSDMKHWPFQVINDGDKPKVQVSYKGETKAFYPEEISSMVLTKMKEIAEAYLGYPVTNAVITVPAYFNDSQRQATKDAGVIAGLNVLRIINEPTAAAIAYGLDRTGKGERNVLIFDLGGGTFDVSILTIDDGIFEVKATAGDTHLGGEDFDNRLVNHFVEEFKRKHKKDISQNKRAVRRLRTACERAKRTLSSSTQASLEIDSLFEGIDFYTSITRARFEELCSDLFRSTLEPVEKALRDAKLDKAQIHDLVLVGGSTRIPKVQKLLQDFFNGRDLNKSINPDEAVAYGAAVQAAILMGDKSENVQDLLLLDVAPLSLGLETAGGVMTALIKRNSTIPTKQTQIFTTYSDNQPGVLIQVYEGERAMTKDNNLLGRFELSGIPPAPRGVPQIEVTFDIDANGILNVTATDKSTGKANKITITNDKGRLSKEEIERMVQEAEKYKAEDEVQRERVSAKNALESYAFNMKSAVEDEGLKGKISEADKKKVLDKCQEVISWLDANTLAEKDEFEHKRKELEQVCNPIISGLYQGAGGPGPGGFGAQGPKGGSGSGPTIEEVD

binding result: binds
B1: FUS-LC (residues 1-163) (domain or fragment, UniProt P35637 1-163, looked up)
chain: MASNDYTQQATQSYGAYPTQPGQGYSQQSSQPYGQQSYSGYSQSTDTSGYGQSSYSSYGQSQNTGYGTQSTPQGYGSTGGYGSSQSSQSSYGQQSSYPGYGQQPAPSSTSGSYGSSSQSSSYGQPQSGSYSQQPSYGGQQQSYGQQQSYNPPQGYGQQNQYNS
